Data on one molecule can be found in patent US20240254201A1 (ACADEMY OF MILITARY MEDICAL SCIENCE PLA, published 2024).

Broadly, the Kd is the equilibrium constant for the complex coming apart. For orientation: koff means the rate constant with which the complex falls apart. As a reminder, the kon is the second-order rate constant of association. A high value points to fast association. The EC50 is the concentration at which the effect is half-maximal. The low end stands for a more potent agent, the high end for a less potent agent.

Assay [1] has as its target T1, GPdMucin (Ebola virus (EBOV), UniProt Q05320 33-632).
T1 construct: domain: GPdMucin; also called GPΔMuc; GPdmucin-His6
In words: SPR, BIACORE 3000; 2G1 captured by anti-human IgG Fc on CM5, GPdMucin as analyte. (In general: In SPR one partner is held on a chip, and binding of the other changes the refractive index at the surface.)

In assay [2] the target is T1, GPdMucin. Nature of the assay: ELISA on coated truncated GP. A general note: An ELISA detects its analyte on a solid surface through an enzyme-linked reagent.

B1: monoclonal antibody 2G1 (antibody, V domains shown)
VH: EVQLVESGGGLVKRGGSLRLSCVVSGYTFGGYSMHWVRQAPGKGLEWVSGISSSSYYKYYADSVKGRFTISRDNAKNSLYLQMNSLRAEDTAVYYCARDMGYCSGGSCPNFDFWGQGTTVTVSS
VL: DIQMTQSPSSLSASVGDRVTITCRTSQSISNYLNWYQQIPGKAPKLLISTASNLHSGVSSRFSGSGSGTHFTLTISSLQPEDFATYYCQQSYSTPSFGQGTKVEIKR
notes: also called 2G1-WT; wild-type 2G1
Turning to B1, in assay [1], the Kd is 0.734 nM, the koff is 3.75e-05 s⁻¹ and the kon was found to be 51100 M⁻¹ s⁻¹. The molecule further showed an EC50 in assay [2] of 3.7 ng/mL.
